As usually defined, the Kd is the free concentration of one partner at which half of the binding sites on the other are occupied at equilibrium, for simple one-to-one binding. By Ki is commonly meant the dissociation constant of the complex between target and ligand, obtained from inhibition or displacement. The low end stands for a stronger hold on the target, the high end for a looser hold on the target.

Results on 12 molecules are retold here after US20230106511A1, “PBP3 BINDING BICYCLIC PEPTIDE LIGANDS” (priority 2020, published 2023).

For the first test, the target named is PBP3 (E. coli) (Escherichia coli, UniProt P0AD68). Description: Fluorescence polarisation direct binding assay. As to conditions: direct binding to PBP 3 (E. coli). Here is the method: Fluorescent peptides at 10 mM in DMSO were diluted to 2.5 nM in binding buffer (10 mM HEPES, pH8, 300 mM NaCl, 2% glycerol). A two-fold dilution series of PBP protein was then prepared across 12 wells in binding buffer, with the highest concentration being 21 μM, and the lowest concentration being 17 nM.
PBP3 (E. coli), sequence (P0AD68 1-577): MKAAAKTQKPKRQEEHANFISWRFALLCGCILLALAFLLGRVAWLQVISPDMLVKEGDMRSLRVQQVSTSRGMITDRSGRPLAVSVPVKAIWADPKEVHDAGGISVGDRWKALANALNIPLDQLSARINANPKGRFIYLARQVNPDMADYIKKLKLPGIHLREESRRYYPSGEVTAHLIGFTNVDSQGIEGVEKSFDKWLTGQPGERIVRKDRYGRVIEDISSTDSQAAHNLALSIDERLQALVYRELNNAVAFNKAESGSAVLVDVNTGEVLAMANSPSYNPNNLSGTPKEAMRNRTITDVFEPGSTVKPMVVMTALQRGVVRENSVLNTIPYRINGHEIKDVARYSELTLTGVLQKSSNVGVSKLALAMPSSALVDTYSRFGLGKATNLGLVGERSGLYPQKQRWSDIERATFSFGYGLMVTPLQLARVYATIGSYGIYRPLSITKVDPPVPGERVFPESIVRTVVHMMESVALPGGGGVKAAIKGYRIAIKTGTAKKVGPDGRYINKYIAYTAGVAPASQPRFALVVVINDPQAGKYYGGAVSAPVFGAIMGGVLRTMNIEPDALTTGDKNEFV
10 μl diluted fluorescent peptide (2.5 nM) was added into 12 wells of a 384-Well NBS™ Low Volume Microplate (Fisher Scientific). 10 μl PBP dilution series was then added to the wells containing the fluorescent peptide, and 5 μl binding buffer was added to bring the total volume to 25 μl and the final concentration of peptide tracer to 1 nM. A control well lacking PBP protein was prepared with a final peptide concentration of 1 nM to a final volume of 25 μl in binding buffer. Fluorescence polarisation was measured every 5 minutes for a period of one hour at room temperature. The gain and focal height were optimised using the control well lacking protein.
Data were analysed in GraphPad software to derive values for the dissociation constant. Experiments were repeated at least three times.
Certain peptide ligands of the invention were tested in the above mentioned binding assay and the results are shown in Table 1 for binding to the indicated PBP: […]
(In general: In fluorescence polarisation assays a small probe gives low polarisation when free and higher when bound to something large.)
In turn, `Cc1cc(C)n2c1C=C1C=CC(CCC(=O)Nc3ccc(OCC(=O)N[C@@H]4C(=O)N5[C@@H]4SC(C)(C)[C@@H]5C(=O)O)cc3)=[N+]1[B-]2(F)F` [Bocillin] showed a Kd of 440 nM.

A further test has as its target unmodified PBP protein. The test can be described thus: Fluorescence polarisation competition binding assay (BODIPY labelled penicillin tracer). The note with it: competition with BODIPY labelled penicillin tracer. The procedure: Fluorescence polarisation competition was carried out using a BODIPY labelled Penicillin tracer and unlabelled peptides, for competition to an unmodified PBP protein.
Fluorescent BODIPY labelled penicillin at 5 mM in DMSO were diluted to 6.25 nM in binding buffer (10 mM HEPES, pH8, 300 mM NaCl, 2% glycerol). Unmodified PBP were diluted to 2 μM in binding buffer. A two-fold dilution series of unmodified peptide was prepared across 12 wells in binding buffer, with the highest final well concentration being 60 μM, and the lowest concentration being […]. 5 μl of the unmodified peptide dilution series or Carbenicillin were added to 12 wells of a 384-Well NBS™ Low Volume Microplate (Fisher Scientific). 10 μl diluted fluorescent BODIPY labelled penicillin (6.25 nM) were then added to the 12 wells containing the unmodified peptide dilutions. 10 μl of unmodified PBP (2 μM) were then added to the 12 wells containing unmodified peptide and fluorescent BODIPY labelled penicillin to bring the total volume to 25 μl, and the final concentration of Fluorescent BODIPY labelled penicillin to 2.5 nM and unmodified PBP to 800 nM. […]
Fluorescence polarisation was measured every 5 minutes for a period of one hour at room temperature. […]
Data were analysed in GraphPad software to derive values for the inhibition constant. […]
“A-CiLENCiiYYVPYYGYACiii-A, TATA bicyclic peptide [BCY12123, A-(SEQ ID NO: 3)-A]” registered an inhibitory constant (Ki) of 1390 nM.

The target of the next test is T1, PBP3 of E. coli (E. coli), P0AD68.
T1 chain: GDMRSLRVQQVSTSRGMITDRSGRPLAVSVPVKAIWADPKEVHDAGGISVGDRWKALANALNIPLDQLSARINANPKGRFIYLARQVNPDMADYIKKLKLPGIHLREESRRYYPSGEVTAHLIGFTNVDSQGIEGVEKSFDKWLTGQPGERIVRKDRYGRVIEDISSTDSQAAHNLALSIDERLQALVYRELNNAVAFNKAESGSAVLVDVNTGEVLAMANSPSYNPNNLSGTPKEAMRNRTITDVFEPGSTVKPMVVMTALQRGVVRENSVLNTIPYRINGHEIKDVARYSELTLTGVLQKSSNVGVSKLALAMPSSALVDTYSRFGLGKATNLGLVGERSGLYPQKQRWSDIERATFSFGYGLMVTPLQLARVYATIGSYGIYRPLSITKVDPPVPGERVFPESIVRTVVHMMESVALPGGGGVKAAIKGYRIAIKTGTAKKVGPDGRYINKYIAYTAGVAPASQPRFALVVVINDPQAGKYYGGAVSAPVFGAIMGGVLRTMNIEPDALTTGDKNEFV
The test can be described thus: FP competition, tracer BCY12820.
Conditions: not given
The molecule CSFPKCPWVEGC (modifications not checked) [BCY12742] showed a Ki of 3 nM. On to ACWFPNCPWVEGCA (modifications not checked) [BCY13764], for which the Ki is less than 4080 nM. Still for that read-out and setting: to ACSFPACPWVEGCA (modifications not checked) [BCY13659] belongs 4 nM. Take ACVYPKCPWVEGCA (modifications not checked) [BCY13768]: the Ki was less than 3820 nM. Turning to ACAFPKCPWVEGCA (modifications not checked) [BCY13656], the inhibition constant (Ki) turned out to be 5 nM. Still for that read-out and setting: the figure for ACSFPKCPWVEACA (modifications not checked) [BCY13664] is 30 nM; for ACQFPVCPWVEGCA (modifications not checked) [BCY13226] it is 20 nM. The same measure, in the same setting: the figure for ACSFPKCPWVEKCA (modifications not checked) [BCY13419] is 40 nM; for CSFPKCPWVEGC (modifications not checked) [BCY13949] it is 45400 nM.

The next test has the same target. The test can be described thus: fluorescence polarisation competition, BODIPY-labelled penicillin as tracer.
Conditions: not given
For the molecule ACLENCYYVPYYGYACA (modifications not checked) [BCY12123], the inhibitory constant (Ki) worked out at 1390 nM.
